Earlier results, collected in patent US20110212858A1, “SYNTHETIC POLY D/L LYSINE FOR CONTROL OF DIRECTION AND RATE OF NEURITE GROWTH AND REGENERATION” (CHILDRENS HOSPITAL LOS ANGELES, priority 2008, published 2011).

Details: requires storage at −80° C.

Question: Which shelf life does the source give for laminin here?
Answer: limited shelf life
